± gives the standard deviation of the averaged measurements.
system: Saccharomyces cerevisiae; assay: protein stability index of tFT-peptide fusion (C-terminal peptide) (PSI (0-1 scale)); higher = more stable (slower turnover); conditions: genetic background: wild type; temperature: 30 C
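Further: PSI is a weighted mean of sequencing reads over stability bins, variants kept only with over 10 reads, mCherry proximal and sfGFP distal, peptide attached via GGGS linker.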

Row | Sequence | protein stability index
1 | VREQRLPLARRV | 0.706 ± 0.07
2 | VRFGWCLGSGDG | 0.702 ± 0.068
3 | VRFLWWGLFWGW | 0.499 ± 0.016
4 | VRFPVEPYEAMF | 0.71 ± 0.0097
5 | VRFSVKPAFVRV | 0.577 ± 0.032
6 | VRGDRRHRGVWG | 0.709 ± 0.066
7 | VRGGGSREERGC | 0.639 ± 0.061
8 | VRGRREGVADER | 0.712 ± 0.084
9 | VRGSLFGICSAL | 0.705 ± 0.06
10 | VRPPRLSSCLLS | 0.656 ± 0.024
11 | VRPRSSSQRPTP | 0.689 ± 0.011
12 | VRQCSSGFRGAF | 0.674 ± 0.07
13 | VRRPSPSGGWLR | 0.73 ± 0.051
14 | VRRWCQFLGCCG | 0.682 ± 0.0081
15 | VRSSELFNGVWC | 0.736 ± 0.093
16 | VRVCRSVGAGMT | 0.649 ± 0.034
17 | VRVCWGCCGVVF | 0.51 ± 0.024
18 | VRWIEYDVKGWA | 0.71 ± 0.011
19 | VSAPRPPPAPSP | 0.786 ± 0.1
20 | VSCGRVGVARLG | 0.641 ± 0.016
21 | VSCLFFFVSIPF | 0.5176 ± 0.0035
22 | VSEVDVRGKGIR | 0.783 ± 0.068
23 | VSFRRFKFKVKM | 0.661 ± 0.061

Row | Sequence | protein stability index
24 | VSGLDSLHPSSN | 0.717 ± 0.034
25 | VSGNLITLRCFT | 0.59604 ± 0.00021
26 | VSKLTRHLWANQ | 0.61 ± 0.094
27 | VSLGRRGDRGLC | 0.719 ± 0.031
28 | VSMPIVPWPLLQ | 0.54 ± 0.016
29 | VSNTSAWLLWIS | 0.629 ± 0.032
30 | VSPLRGSRAPFP | 0.744 ± 0.068
31 | VSRDVMYLGLGG | 0.721 ± 0.18
32 | VSRGGAVRLSTQ | 0.7027 ± 0.0027
33 | VSRGGWLKWDEG | 0.66 ± 0.028
34 | VSRITSRFEKKM | 0.592 ± 0.0086
35 | VSRRSGVGICHL | 0.609 ± 0.13
36 | VSRVWAHFGFCG | 0.707 ± 0.02
37 | VSSCSGVLLCVP | 0.544 ± 0.016
38 | VSSPRLSPRLLY | 0.775 ± 0.084
39 | VSSSLPVHLSLS | 0.717 ± 0.037
40 | VSSVGILPFRFN | 0.72 ± 0.077
41 | VSVIRIVPPEFI | 0.672 ± 0.03
42 | VSVLVAFDTLPG | 0.711 ± 0.034
43 | VSVVGDVWGYGG | 0.753 ± 0.068
44 | VSYFARCLGSLA | 0.629 ± 0.0011
45 | VTCGVGQHAAIA | 0.731 ± 0.053
46 | VTFRTFFVPTFK | 0.662 ± 0.097

Row | Sequence | protein stability index
47 | VTNGGGMGWYRR | 0.652 ± 0.078
48 | VTPLPSLPHHRA | 0.604 ± 0.041
49 | VTPVQFMFRLHF | 0.646 ± 0.054
50 | VTSSIQNRCTSC | 0.706 ± 0.076
51 | VVALTSVRSRDV | 0.6759 ± 0.0013
52 | VVALVLVGRHGG | 0.597 ± 0.041
53 | VVARLERAGLGG | 0.766 ± 0.094
54 | VVCGARGDGRCE | 0.6834 ± 0.0068
55 | VVCSTRRPSLGS | 0.681 ± 0.03
56 | VVCVGAEVGEGG | 0.7197 ± 0.0067
57 | VVEKKKKKKNNK | 0.73 ± 0.041
58 | VVGGAWTEAGGG | 0.632 ± 0.035
59 | VVHGIGLIYTGG | 0.68 ± 0.041
60 | VVHVGVWGLGRG | 0.64819 ± 0.00032
61 | VVIFYSSESRRR | 0.724 ± 0.03
62 | VVISRTPAALES | 0.697 ± 0.013
63 | VVLCAALHRTYG | 0.638 ± 0.012
64 | VVLGGGVGRGCW | 0.691 ± 0.13
65 | VVPYRCQRLGDG | 0.686 ± 0.061
66 | VVRARLYVWWLG | 0.664 ± 0.13
67 | VVRGPSGAGRAG | 0.665 ± 0.052
68 | VVRWRMGLFGGR | 0.654 ± 0.013
69 | VVSAIISGLSIK | 0.733 ± 0.0088

Row | Sequence | protein stability index
70 | VVSDGRSYGLLK | 0.73703 ± 0.00014
71 | VVSEQLDRGMRF | 0.694 ± 0.039
72 | VVVRRSEVGGRV | 0.65 ± 0.095
73 | VVWGAWGGWGCW | 0.726 ± 0.056
74 | VVWSGWGCGGVR | 0.619 ± 0.015
75 | VWAVGRATARER | 0.6969 ± 0.0025
76 | VWAWGDGGGAVV | 0.728 ± 0.051
77 | VWDGLAVAATCS | 0.597 ± 0.085
78 | VWFEAGLGWFFL | 0.721 ± 0.047
79 | VWFGAGSYSFLC | 0.5683 ± 0.0016
80 | VWGGGLLVGAGW | 0.669 ± 0.035
81 | VWRSTVRVSRAG | 0.763 ± 0.051
82 | VWSWVDSFCRGG | 0.744 ± 0.042
83 | VWVEVDGLLVVV | 0.534 ± 0.043
84 | VWVQISGRLNWK | 0.709 ± 0.06
85 | VWVVGADEDAVR | 0.698 ± 0.03
86 | VYFFSSIFRCFV | 0.544 ± 0.048
87 | VYFLWPRFVCDA | 0.585 ± 0.044
88 | VYLRSMLSLNIR | 0.676 ± 0.051
89 | VYPRNLPGSVPL | 0.666 ± 0.02
90 | VYPRRLLPSRGL | 0.668 ± 0.098
91 | VYQLTKNERVIK | 0.643 ± 0.1
92 | VYRRGESRTHGD | 0.682 ± 0.018

Row | Sequence | protein stability index
93 | VYSVDGGKTVLD | 0.669 ± 0.028
94 | VYTIHECADMLY | 0.712 ± 0.045
95 | VYVLHNVMCSSD | 0.632 ± 0.051
96 | VYYDSVVSLSGA | 0.661 ± 0.079
97 | WAARPSATGDRC | 0.664 ± 0.042
98 | WAAWGGGEAWGV | 0.698 ± 0.047
99 | WAFYFPWSSSLM | 0.726 ± 0.036
100 | WAGGANGEWGEW | 0.8097 ± 0.0021
101 | WARGGRVDDGGG | 0.62 ± 0.057
102 | WATPRPCQMVPS | 0.567 ± 0.038
103 | WAVLLQGSRDLW | 0.788 ± 0.016
104 | WCAGLATAIQLR | 0.636 ± 0.053
105 | WCECGVWVGLWG | 0.732 ± 0.059
106 | WCGLRVGGGGMW | 0.74 ± 0.017
107 | WCGNGFVKKGGL | 0.655 ± 0.007
108 | WCKLLGGSVFGE | 0.671 ± 0.023
109 | WCLRVRASGRGG | 0.786 ± 0.3
110 | WCRGGGWPVTGL | 0.7 ± 0.042
111 | WCVCGVWVGLWG | 0.71 ± 0.076
112 | WCVLLMALFRWW | 0.625 ± 0.025
113 | WDLPKTLCSKYT | 0.727 ± 0.013
114 | WDQLPVNMVYQC | 0.571
115 | WDSLGGCRARLS | 0.7 ± 0.013

Row | Sequence | protein stability index
116 | WFCRFTGGRRLL | 0.671 ± 0.044
117 | WFDCGSACFGYL | 0.782 ± 0.056
118 | WFGPPAPRKVSP | 0.852 ± 0.042
119 | WFGSPRCVGGQL | 0.703 ± 0.03
120 | WFQRGKIPIHKV | 0.667 ± 0.074
121 | WFRMTFLSPLHD | 0.797 ± 0.044
122 | WGGGGGKEAVVR | 0.6554 ± 0.0042
123 | WGGGGGRGGMGG | 0.693 ± 0.055
124 | WGGGGGVWGHVV | 0.603 ± 0.034
125 | WGGSGRVWVKLG | 0.696 ± 0.055
126 | WGGSSPHRTEPR | 0.666 ± 0.058
127 | WGGWGLRVSCGT | 0.681 ± 0.052
128 | WGLGFRLVFWSV | 0.5289 ± 0.0022
129 | WGPCCSTLLFFV | 0.423 ± 0.12
130 | WGRFGYGPAVVG | 0.735 ± 0.063
131 | WGRRGGVARGRA | 0.787 ± 0.1
132 | WGRRVSPVRDGR | 0.671 ± 0.032
133 | WGSISVEGRVAG | 0.715 ± 0.015
134 | WGTGGRLGVGHV | 0.697 ± 0.056
135 | WGVGGVLEVLLG | 0.522 ± 0.022
136 | WGVGRDVVLWGA | 0.895 ± 0.14
137 | WGVSARDPVFKE | 0.654 ± 0.018
138 | WGVSGAGPHLLL | 0.74 ± 0.038

Row | Sequence | protein stability index
139 | WGWGGGRGGMGG | 0.716 ± 0.022
140 | WGWPHQRDGFLG | 0.66 ± 0.007
141 | WHWDGVGTLVIW | 0.605 ± 0.14
142 | WLCLARGRLGLH | 0.583 ± 0.011
143 | WLESHVSRGLTT | 0.64 ± 0.021
144 | WLGRGGACGVRW | 0.696 ± 0.05
145 | WLGTIVCGRGWW | 0.7003 ± 0.006
146 | WLLGLCLFGFHR | 0.577 ± 0.013
147 | WLLKGTVTLMMW | 0.5687 ± 0.0031
148 | WLPPPPYSPFSL | 0.724 ± 0.059
149 | WLREDCLLSRGR | 0.7 ± 0.0016
150 | WLRSLLKENLVR | 0.5422 ± 0.0016
151 | WLRVLFPSSPGD | 0.607 ± 0.04
152 | WLSAGAWGAVIL | 0.788 ± 0.034
153 | WPLISPFSKHRW | 0.696 ± 0.055
154 | WPLVLSYRKESA | 0.803 ± 0.22
155 | WQGARLSSREGH | 0.694 ± 0.038
156 | WQLKGNGGREAL | 0.671 ± 0.034
157 | WQNKKDNGKIRG | 0.724 ± 0.11
158 | WRCYCFLGLDEG | 0.653 ± 0.029
159 | WRPLIPPSLPPL | 0.6977 ± 0.0069
160 | WRQRVWRGGWKG | 0.594 ± 0.031

From the supplement of paper PMC10724198
